Assays:
[1] = system: AFP pre-mRNA (AFP_E3-E6 mini-gene); assay: real-time RT-PCR (TaqMan) quantification of trans-splicing towards over-expressed AFP mini-gene in HepG2 cells; type: cell-based, human; details: 3′ER, HepG2 co-transfected with AFP mini-gene vector, 24 hours post transfection
Description: Transfection of plasmid DNAs: HepG2 cells were transfected at ˜70-90% confluency in a 6-well plate for Western blotting, 12-well for FACS analyses and 24-well plate for all other analyses using either Lipofectamine 3000 (for FACS studies only) or Lipofectamine 2000, (Life Technologies) according to manufacturer's protocol. A total of 1 μg DNA was co-transfected or transfected in a 24-well plate format (500 ng:500 ng of ts construct: AFP_E3_E6 minigene) in over-expression studies and 1 μg of ts constructs only in endogenous studies. For 12-well and 6-well formats, the amount of total DNA was scaled up to 2 μg and 4 μg respectively. For FACS experiments, either 500 ng of pEGFP-C2 plasmid was co-transfected along with the ts and AFP mini-gene vectors to perform experiments with some 3′ER and 5′ER plasmids and dumbbells, or the GFP infused ts vectors were used along with/without AFP mini-gene for over-expression and endogenous studies respectively.
Total RNA Isolation: RNA was isolated 24 hours post-transfection using RNeasy plus kit (Qiagen) following the manufacturer's protocol. RNA concentrations were measured using NanoDrop 2000.
cDNA conversion and real-time RT-PCR: 500 ng RNA from all samples was converted into cDNA using the First Strand SuperScript RTIII (Invitrogen) kit with 200 ng of random hexamers and 10 uM of dNTPs. The reaction conditions were 25° C. for 5 min, followed by 50° C. for 2 h and enzyme inactivation at 70° C. for 15 min. 20 ng of cDNA was used as template for real time RT-PCR. TaqMan quantification was performed in ABI 7900HT of the cDNAs by designing specific probe and primer sets for each cis- and trans-splicing detection. One set of probes were designed in the AFP regions; namely AFP probe exon 5 and AFP probe exon 4 to detect 3′ER and 5′ER cis and trans-splicing respectively. Primers to detect 3′ER cis-splicing along with AFP probe were FP afp exon 5 (set1) and RP afp exon 6 and for 3′ER trans-splicing were FP afp exon 5 (set1) and RP HSVtk. Primers to detect 5′ER cis-splicing along with AFP probe were FP afp exon 3 and RP afp exon 4 (set1) and for 5′ER trans-splicing were FP HSVtk (set1) and RP afp exon 4 (set1). Another set of probes were designed in the distal HSVtk region to detect 3′ER, named HSVtk probe for 3′ER and proximal HSVtk region to detect 5′ER, named HSVtk probe for 5′ER trans-splicing alone. The primers to detect 3′ER trans-splicing along with HSVtk probes were FP afp exon 5 (set2) and RP HSVtk. Primers to detect 5′ER trans-splicing along with HSVtk probes were FP HSVtk (set2) and RP afp exon 4 (set2). The number of cycles in over-expression studies and endogenous studies were 40 and 50 respectively. RT-PCR: Reverse transcription PCR was performed on the cDNA samples using Taq DNA polymerase (Fermentas) with […] of two-step PCR (30+30 cycles or 35+35 cycles) to detect 3′ and 5′ cis and trans-splicing and the bands were visualized on a 1% agarose gel. The primers used to detect 3′ER cis-splicing and mock were FP afp exon 5 (set1) and RP afp exon 6, to detect 3′ER trans-splicing were FP afp exon 5 (set1) and RP HSVtk. To detect 5′ER cis-splicing and mock were primers FP afp exon 3 and RP afp exon 4 (set1), to detect 5′ER trans-splicing were primers FP HSVtk (set1) and RP afp exon 4 (set1). […]

[2] = system: HHRz cleavage motif at tsRNA 3′ end; assay: stem-loop primer based rt-RT-PCR of hammerhead ribozyme (HHRz) cleavage; type: cell-based
Description: FIG. 3 Improved stability at 3′ end of the RNA improves 5′ trans-splicing in correlation with cleavage of hammerhead ribozyme. […] 145. The conserved motifs of stem Ia, Ib and II are highlighted in boxes and stem Ill is designed as a perfect complement to the 3′ end of the ΔBD to make the HH Rz structure. Cleavage motif GUC is shown with a scissor icon. […] R2, correlation coefficient. n=3, linear regression analysis.
That was surprising as the uncleaved RNA comprises a polyA tail and is expected to be exported to the cytoplasm thereby lowering its nuclear concentration and the rate of trans-splicing. We investigated HHRz cleavage by quantifying the cleaved RNA 3′ end using stem-loop primer based rt-RT-PCR (FIG. 3a). This method was proven to efficiently discriminate between perfect primer-matching and extended RNA 3′ ends. The observed 6.2 cycle difference indicated a ribozyme cleavage rate above 90% yielding trans-splicing RNA with an unstructured 3′ terminal BD (FIG. 3a). Unstructured ends of antisense RNA have been reported to be associated with both fast target binding and degradation. […]

Molecule	more potent (trans-splicing) than 3ER_BD-struc1 [1]	stronger trans-splicing compared with 3ER_ΔBD-opt-inv [1]	more potent (trans-splicing) than 3ER_BD-struc2 ([1]; p=0.04)	stronger trans-splicing compared with 3ER_BD-opt ([1]; p=0.04)	stronger trans-splicing compared with 3ER_BD-opt-inv ([1]; p=0.04)	ribozyme cleavage rate ([2]; indicated by the cycle difference)	cycle difference, cleaved RNA 3′ end (active versus inactive HHRz motif) ([2]; stem-loop primer rt-RT-PCR)
3ER_ΔBD-opt: parental 3′ exon replacement tsRNA construct; unstructured 50 base BD to AFP intron 5 with two mismatches, HSVtk (nucleic acid) DNA: GCTAGCACCTCTCTAAACCTAAATTAAATTTTCTTCTCTAAACCTCTTTCCTAGTTGGACTGACGTCACTCAGTCCTCCTCCTCAGC	4 fold	3 fold	6 fold	4 fold	30 fold		
p5ER_ΔBD-opt_HH: parental 5′ exon replacement tsRNA construct; unstructured mismatched BD to AFP intron 3, HSVtk, active hammerhead ribozyme (nucleic acid) DNA: GGTACCCCTCCTTCCTCCTCCTCCTCCTCCTCCTCCTATATACATATACACACACACACACACTCATACCACATTTCAGACATAAAT						above 90%	6.2 cycle

Source: patent US11517583B2, “Trans-splicing RNA (tsRNA)” (NATIONAL UNIVERSITY OF SINGAPORE, priority 2016, dated 2022)
